How the values were obtained:
[1] = system: high-fat diet-fed B6 mice; assay: Arginase-1 mRNA expression in visceral fat of high-fat diet-fed B6 mice given recombinant adenovirus; type: in vivo; settings: twelve-week high-fat diet B6 mice, activin expressed by recombinant adenovirus via tail vein once a week for two weeks
Excerpt: (§1) Full-length mouse inhibin βA cDNA or full-length mouse inhibin βB cDNA was amplified by using pcDNA3.1/V5-HisA (Invitrogen) in accordance with the recommended method. The amplified product was subjected to HindIII and EcoRV treatments and used for production of recombinant adenovirus. The recombinant adenovirus of inhibin βA or inhibin βB was produced by using Takara Adenovirus Expression Vector Kit (Takara) in accordance with the recommended method. For negative control, β-galactosidase-gene-containing virus attached to the kit was used. The adenovirus was transfected to HEK293 cells by using CellPhect (registered trademark) Transfection Kit (GE Healthcare) with the calcium phosphate method.
After five-week-old male B6 mice were adapted with normal diet for one week, high-fat diet was fed for twelve weeks. The recombinant adenovirus (5.0×10^11 pfu/mL) was lysed in 150 μL of PBS and administered to mice in the 18th week from the tail vein once a week for two weeks. Visceral fat was collected on seventh day after the second administration for performing reverse transcription in accordance with the protocol of High Capacity cDNA Reverse Transcription Kit with RNase Inhibitor (ABI) and the expression analysis of arginase-1 was performed with TaqMan PCR.

RAW264.7 cells [2] = assay: Arginase-1 expression in RAW264.7 cells with activin A, Fstl3, anti-Fstl3 antibody or mouse IgG and palmitic acid; type: cell-based; settings: activin A 10 ng/mL, under induction of inflammation by palmitic acid 200 μM
Method: Fstl3 (30 ng/mL), an anti-Fstl3 antibody or mouse IgG (0.3 to 10 μg/mL), and activin A (10 ng/mL) were added to RAW264.7 cells in combination as depicted in FIG. 6. Human Recombinant (R&D Systems, 338AC005), Recombinant (R&D Systems, 659AB005), and Follistatin-like 3 Recombinant (R&D Systems, 1255F3025) were used for activin A, activin B, and Fstl3, respectively. After 30 minutes, palmitic acid (a proinflammatory substance) was added to the final concentration of 200 μM and, after eight hours, RNeasy Mini Kit (250) (Qiagen, Cat. Number 74106) was used for recovering the cells to extract RNA.
The RNA extracted at step (1) was used for performing a reverse transcription reaction in accordance with the protocol of High Capacity cDNA Reverse Transcription Kit with RNase Inhibitor (ABI) to perform TaqMan PCR. Arginase-1 was selected as an M2 macrophage marker to create TaqMan probes.

RAW264.7 cells [3] = assay: Expression of M2 macrophage markers in RAW264.7 cells cultured with activin A and SB431542; type: cell-based; settings: activin A 10 or 30 ng/mL, 24 hours
Method: Activin A (10 ng/mL or 30 ng/mL) and SB431542 (0.1 to 1 μM, Santa Cruz Biotechnology, Inc., sc-204265) were added to RAW264.7 cells in combination as depicted in FIG. 2. Human Recombinant (R&D Systems, 338AC005) was used for activin A. After 24 hours, RNeasy Mini Kit (250) (Qiagen, Cat. Number 74106) was used for recovering the cells to extract RNA. The RNA extracted at step (1) was used for performing a reverse transcription reaction in accordance with the protocol of High Capacity cDNA Reverse Transcription Kit with RNase Inhibitor (ABI) to perform TaqMan PCR. Arginase-1, Mrc2 (mannose receptor 2), and IL-10 were selected as M2 macrophage markers to create respective TaqMan probes.

[4] = system: high-fat diet-fed B6 mice; assay: Glucose tolerance test (GTT) in high-fat diet-fed B6 mice given recombinant adenovirus; type: in vivo; settings: activin expressed by recombinant adenovirus, glucose 1.0 mg/g-BW into abdominal cavity
Method: Adenovirus was produced in the same way as the production of recombinant adenovirus in Example 3.
After five-week-old male B6 mice were adapted with normal diet for one week, high-fat diet was fed for twelve weeks. The recombinant adenovirus (5.0×10^11 pfu/mL) was lysed in 150 μL of PBS and administered to mice in the 18th week from the tail vein once a week for two weeks. A glucose tolerance test (GTT) was performed on seventh day after the second administration.
The GTT was performed as follows. Into the abdominal cavities of mice fasted for 16 hours from the previous day of the test, 1.0 mg/g-BW of glucose (diluted by physiological saline) was administered. Serum was separated from collected whole blood and glucose concentration was measured by Glucose-Test Wako (manufactured by Wako Pure Chemical Industries).

RAW264.7 cells [5] = assay: Macrophage marker expression in RAW264.7 cells with activin A, activin B or SB431542 and palmitic acid; type: cell-based; settings: 8 hours
Method: (1) Induction of Macrophages by Activin Species Activin A (10 ng/mL), activin B (10 ng/mL), and SB431542 (0.1 to 1 μM) were added to RAW264.7 cells in combination as depicted in FIG. 4. Human Recombinant (R&D Systems, 338AC005) and Recombinant (R&D Systems, 659AB005) were used for activin A and activin B, respectively. After 30 minutes, palmitic acid (a proinflammatory substance) was added to the final concentration of 200 μM and, after eight hours, RNeasy Mini Kit (250) (Qiagen, Cat. Number 74106) was used for recovering the cells to extract RNA. The RNA extracted at step (1) was used for performing a reverse transcription reaction in accordance with the protocol of High Capacity cDNA Reverse Transcription Kit with RNase Inhibitor (ABI) to perform TaqMan PCR. Arginase-1 was selected as an M2 macrophage marker and IL-6 and MCP-1 were selected as M1 macrophage markers to create respective TaqMan probes. Analysis was performed in the same way as the expression analysis of macrophage markers of Example 1.

RAW264.7 cells [6] = assay: Expression of M2 and M1 macrophage markers in RAW264.7 cells cultured with activin A or activin B (TaqMan PCR); type: cell-based; settings: 10 or 30 ng/mL added individually, 8 hours
Method: Each of activin A (10 ng/mL or 30 ng/mL) and activin B (10 ng/mL or 30 ng/mL) was individually added to RAW264.7 cells. Human Recombinant (R&D Systems, 338AC005) and Recombinant (R&D Systems, 659AB005) were used for activin A and activin B, respectively. After eight hours, RNeasy Mini Kit (250) (Qiagen, Cat. Number 74106) was used for recovering the cells to extract RNA.
The RNA extracted at step (1) was used for performing a reverse transcription reaction in accordance with the protocol of High Capacity cDNA Reverse Transcription Kit with RNase Inhibitor (ABI) to perform TagMan PCR. Arginase-1 was selected as an M2 macrophage marker and IL-6 and MCP-1 were selected as M1 macrophage markers to create respective TaqMan probes. Each of mRNA expression levels is represented by a multiple when an expression level of cyclophilin A mRNA in the same sample is defined as one (hereinafter, the same applies to the examples using TaqMan PCR unless otherwise stated).

db/db mice = assay: Arginase-1 mRNA expression in visceral fat of db/db mice given recombinant adenovirus; type: in vivo; settings: activin expressed by recombinant adenovirus via tail vein once a week for two weeks, compared to control
Excerpt: as §1
After seven-week-old male db/db mice were adapted for one week, 5.0×10^11 pfu/mL of the recombinant adenovirus was lysed in 150 μL of PBS and administered from the tail vein once a week for two weeks. Visceral fat was collected on seventh day after the second administration for performing a reverse transcription reaction in accordance with the protocol of High Capacity cDNA Reverse Transcription Kit with RNase Inhibitor (ABI) and the expression analysis of arginase-1 was performed with TaqMan PCR.

[7] = activin 10 ng/mL, palmitic acid 200 μM

B1: activin A: Human Recombinant (R&D Systems, 338AC005); in Examples 3 and 7 expressed by inhibin βA recombinant adenovirus (protein, UniProt P08476 311-426, looked up)
Inhibin beta A chain: GLECDGKVNICCKKQFFVSFKDIGWNDWIIAPSGYHANYCEGECPSHIAGTSGSSLSFHSTVINHYRMRGHSPFANLKSCCVPTKLRPMSMLYYDDGQNIIKKDIQNMIVEECGCS
modifications: Inhibin beta A chain homodimer
expression level of arginase-1 in visceral fat [1]: slightly increased
expression level of arginase-1 (RAW264.7 cells [2]): increased
expression of IL-10 (RAW264.7 cells [3]): remarkably increased
expression of Mrc2 (RAW264.7 cells [3]): remarkably increased
expression of arginase-1 (RAW264.7 cells [3]): remarkably increased
glucose metabolism in glucose tolerance test (GTT) [4]: improved glucose metabolism
expression level of arginase-1 (RAW264.7 cells [5]; activin 10 ng/mL present, palmitic acid 200 μM added, compared to control): remarkably increased
expression level of MCP-1, effect of activin addition (RAW264.7 cells [5]; [7]): not changed
expression of IL-6, effect of activin addition (RAW264.7 cells [5]; [7]): slightly reduced
expression level of IL-6 (M1 macrophage marker) (RAW264.7 cells [6]): not changed
expression level of MCP-1 (M1 macrophage marker) (RAW264.7 cells [6]): not changed
expression of arginase-1 (M2 macrophage marker) (RAW264.7 cells [6]; mRNA relative to cyclophilin A): remarkably increased
expression of arginase-1 in visceral fat (db/db mice): no difference from the control

— US20130143812A1, “ANTI-INFLAMMATORY DRUG” (SEKISUI MEDICAL CO., LTD., priority 2010, published 2013)
